Results reported in publication PMC11065875.

Tested on: H-24 (His-ELP) (synthetic; E. coli BL21 expressed)
Assay: coacervate partitioning, fluorimetry
Settings: EMSA in 2.5% agarose, 30 min incubation, 0.5 uM ssDNA1, fusions in 1x PBS (or 50% artificial fluids) at RT, His-ELPs at RT in 37 mM citric acid/126 mM Na2HPO4 …; for binding signal (% in coacervate): 60 C (LLPS 1)

Q: How did the binding signal (% in coacervate) (pH 6.5, artificial nasal swab fluid) turn out when “GGGTTCCTTGCTAGCCAGAGAGCTCCCGGGCTCGACCTGGTCTAACAAGAGAGACC [ATTO488-ssDNA1]” was run?
A: 80

Q: What about the binding signal (% in coacervate) (pH 6.5, artificial saliva) of the same sequence?
A: 70

Q: What about the binding signal (% in coacervate) (pH 6.5, buffer) of the same sequence?
A: 60

Q: And the binding signal (% in protein-poor supernatant) (pH 8, 300 mM NaCl, 30 C (LLPS 2))?
A: > 90
